Experimental data from PMC9700705, “A non-carboxylating pentose bisphosphate pathway in halophilic archaea” (Communications Biology, 2022).

Columns and labels:
[1] = target: T1, Hx-RbsK (ATP-R1PK) (Halopiger xanaduensis, UniProt F8D4I6); assay: PK/LDH-coupled NDP quantification; assay type: biochemical; settings: 25 mM R1P, 20 mM MgCl2, 0.8 M NaCl, 42 °C
T1 construct: gene Halxa_1682; recombinant from E. coli Rosetta (DE3), codon-optimised synthetic gene in pET-21a(+) NdeI/BamHI, purified on anion exchange, hydroxyapatite and gel filtration
T1 sequence (F8D4I6 whole entry): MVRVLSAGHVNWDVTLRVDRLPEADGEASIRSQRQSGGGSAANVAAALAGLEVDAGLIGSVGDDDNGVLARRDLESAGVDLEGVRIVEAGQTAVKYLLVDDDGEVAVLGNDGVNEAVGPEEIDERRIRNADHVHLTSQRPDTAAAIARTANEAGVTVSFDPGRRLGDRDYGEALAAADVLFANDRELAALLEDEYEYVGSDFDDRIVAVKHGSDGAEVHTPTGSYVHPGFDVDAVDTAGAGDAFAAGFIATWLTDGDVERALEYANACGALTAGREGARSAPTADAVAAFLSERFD

[2] = target: T1, Hx-RbsK (ATP-R1PK); assay: PK/LDH-coupled NDP quantification; HPLC of product R15P; assay type: biochemical; settings: 20 mM MgCl2, 2 M KCl, pH 8.3-8.4, 47 °C
[3] = target: T2, glycolaldehyde reductase (GaR, VNG_6270G) (Halobacterium salinarum, UniProt Q9HHR2); assay: NADH consumption at […] nm; assay type: biochemical; settings: 0.2 mM NADH, 50 mM MES-NaOH pH 6.0, 3 M KCl, 40 °C; fit with substrate inhibition; substrate inhibition constant, second site
T2 construct: native protein purified from H. salinarum cell-free extract (hydroxyapatite, Superdex200), identified by LC-MS; plasmid-encoded; GenBank entry is the codon-optimised recombinant gene (Hs-GaR)
T2 sequence (Q9HHR2 1-365): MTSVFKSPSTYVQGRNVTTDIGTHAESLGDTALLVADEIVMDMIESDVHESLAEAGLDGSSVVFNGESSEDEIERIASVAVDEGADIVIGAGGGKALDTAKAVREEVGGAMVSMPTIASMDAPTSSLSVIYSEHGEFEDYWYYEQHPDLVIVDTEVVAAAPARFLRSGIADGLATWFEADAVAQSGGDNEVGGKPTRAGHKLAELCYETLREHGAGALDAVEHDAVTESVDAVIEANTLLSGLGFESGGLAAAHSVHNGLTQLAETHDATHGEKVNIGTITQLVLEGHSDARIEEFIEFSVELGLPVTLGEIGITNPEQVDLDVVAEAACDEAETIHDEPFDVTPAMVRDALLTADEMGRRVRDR

[4] = substrate: O=P(O)(O)O; assay: purified protein; settings: 1 mM guanosine, 2 M KCl, 30 °C
[5] = substrate: Nc1nc2c(ncn2[C@@H]2O[C@H](CO)[C@@H](O)[C@H]2O)c(=O)[nH]1; assay: purified protein; assay type: biochemical, Halorubrum lacusprofundi; settings: 50 mM sodium phosphate pH 7.5, 2 M KCl, 30 °C
[6] = substrate: O=C(CO)COP(=O)(O)O; assay: HPLC of Ru1P formed (condensation direction); assay type: biochemical, Halopiger xanaduensis; settings: 50 mM glycolaldehyde, 50 mM Tris-HCl pH 8.0, 2 M KCl, 1 mM ZnCl2, 47 °C
[7] = substrate: O=CCO; assay: HPLC of Ru1P formed (condensation direction); assay type: biochemical, Halopiger xanaduensis; settings: 20 mM DHAP, 50 mM Tris-HCl pH 8.0, 2 M KCl, 1 mM ZnCl2, 47 °C
[8] = substrate: O=C(COP(=O)(O)O)[C@H](O)[C@H](O)COP(=O)(O)O; assay: purified protein; assay type: biochemical, Halopiger xanaduensis; settings: 50 mM Tris-HCl pH 7.5, 2 M KCl, 5 mM MgCl2
[9] = substrate: O=CCO; assay: purified protein; assay type: biochemical, Halobacterium salinarum; settings: 0.2 mM NADH, 50 mM MES-NaOH pH 6.0, 3 M KCl, 40 °C, fit with substrate inhibition

For Nc1ncnc2c1ncn2[C@@H]1O[C@H](COP(=O)(O)OP(=O)(O)OP(=O)(O)O)[C@@H](O)[C@H]1O [ATP], the “PK/LDH-coupled NDP quantification” value [1] was “Using R1P as the phosphate acceptor, the enzyme preferred ATP among NTPs”.

In the case of O=P(O)(O)O[C@H]1O[C@H](CO)[C@@H](O)[C@H]1O [R1P], the “PK/LDH-coupled NDP quantification; HPLC of product R15P” value [2] is reported as “HPLC analysis of the Hx-RbsK reaction product indicated that R15P was generated from R1P”.

O=CCO [glycolaldehyde] gave a Ks2 [3] of 35 ± 8 mM.

B1: Hl-Urdpase1 (guanosine phosphorylase) (Halorubrum lacusprofundi ATCC 49239) (protein)
chain: MAKQPHLLVEEGDVHEIAIIPGDPGRVDRIADLCDDSELVAQNREYKIVNASYDGTDLTICSTGIGCPSAAIAVEELSRVGVETFLRCGTCGALQADMEVGDMVVATGAAKEEGTSKRYESVEYPAVPDYDALTELVGAAEDNDEEIHVGPIVSDDAFYNESDEYVDDWNDANLLAIEMEAATVFALARRKGLRAGAICTVDGNLVAGNQKGADSDDELPEKAKDNVERAIRITLNAVTAL
notes: recombinant from E. coli BL21-CodonPlus(DE3)-RIL, codon-optimised synthetic gene in pET-21a(+) NdeI/BamHI, purified on hydroxyapatite and gel filtration
In the case of B1, the Km [4] is reported as 4.8 ± 0.8 mM and the Km [5] is reported as 0.056 ± 0.01 mM.

B2: Hx-FucA (Ru1P aldolase) (Halopiger xanaduensis SH-6) (protein)
chain: MILETERRAVVEHASELADLTPGRTGNLSVRGSGDDTDAGPGDAFAITPTGVPYDGFDVEDVPVVGTDGERLDGEMAPSSEVPMHSAIYRREDVGAIVHTHSPWATALAVANQPLPPIHYMIVAVGKRVPVAEYAPYGTDELAENIVTAMTEAGSTASLIENHGLVVTAPDLETALENTHHVESLARLYLESRSAGLEPQTLTDDQLETVLEKFESYGQ
notes: recombinant from E. coli Rosetta (DE3), codon-optimised synthetic gene in pET-21a(+) NdeI/BamHI, purified on anion exchange, hydroxyapatite and gel filtration
B2 gave a Km [6] of 3.5 ± 0.3 mM and a Km [7] of 3.4 ± 0.3 mM.

B3: Hx-HAD hydrolase (RuBP phosphatase) (Halopiger xanaduensis SH-6) (protein)
chain: MATAVLFDLDNTLYPYPPCNQAGKAAALERAQELGYDFDHESFAEFYQAGRREVKRDTGGTAASHERYLYFKRALELHTGSPRPGDALALGDAYWSAYLEEMSLVPDAKETLEELQEQGVDIAITTNLTTTIQLAKLERLGLTDYVDLVLTSEETGQEKPASVMFTLPLARLDSRASEAVMVGDDLEADIAGANAVGLETVLFDPSEESDATESADRAATERQADHSIDTLGELTDLVS
notes: recombinant from E. coli Rosetta (DE3), codon-optimised synthetic gene in pET-21a(+) NdeI/BamHI, purified on hydroxyapatite and gel filtration
B3 showed a Km [8] of 2.2 ± 0.5 mM.

B4: glycolaldehyde reductase (GaR, VNG_6270G) (Halobacterium salinarum NRC-1) (protein)
chain: T2 sequence (Q9HHR2 1-365)
notes: native protein purified from H. salinarum cell-free extract (hydroxyapatite, Superdex200), identified by LC-MS; plasmid-encoded; GenBank entry is the codon-optimised recombinant gene (Hs-GaR)
In the case of B4, the Km [9] is reported as 10 ± 2 mM.
